Patent US7727960B2, “C5a receptor antagonists” (Jerini AG, priority 2003, dated 2010)
Like-named read-outs stand apart in the source and are kept apart here. Positions of bridges follow the written chain, without caps; N, C: chain ends. Non-standard residues stand in square brackets, D forms with d. Residues, ends and D or L forms follow the SMILES beside them. No end group written: not given here. Phenylbutanoyl = Phenylbutanoyl residue at the C-terminus; NEtPhe = CCN[C@@H](Cc1ccccc1)C(=O)O; NMeF = CN[C@@H](Cc1ccccc1)C(=O)O; Cha = N[C@@H](CC1CCCCC1)C(=O)O; dCha = N[C@H](CC1CCCCC1)C(=O)O; AllylGly = C=CC[C@H](N)C(=O)O; Nle = CCCC[C@H](N)C(=O)O; Orn = NCCC[C@H](N)C(=O)O; dNMeA = CN[C@H](C)C(=O)O

T1: C5aR (Homo sapiens, UniProt P21730)
T1 construct: derived from measurements with isolated membranes from polymorphonuclear neutrophilic granulocytes (PMN membranes); host or cells: isolated membranes of polymorphonuclear neutrophilic granulocytes (PMN membranes)
T1 sequence (P21730 1-350): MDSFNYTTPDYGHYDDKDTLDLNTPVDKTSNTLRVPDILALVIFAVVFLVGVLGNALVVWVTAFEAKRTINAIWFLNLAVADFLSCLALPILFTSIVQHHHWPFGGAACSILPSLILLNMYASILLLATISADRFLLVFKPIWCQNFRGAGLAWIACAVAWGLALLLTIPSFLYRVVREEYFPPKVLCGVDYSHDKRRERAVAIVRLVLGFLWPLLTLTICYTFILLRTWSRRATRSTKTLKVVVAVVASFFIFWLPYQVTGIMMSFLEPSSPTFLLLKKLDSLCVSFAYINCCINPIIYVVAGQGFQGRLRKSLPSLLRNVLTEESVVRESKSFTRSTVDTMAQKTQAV

T2: C5a receptor (Homo sapiens, UniProt P21730)
T2 sequence (P21730 1-350): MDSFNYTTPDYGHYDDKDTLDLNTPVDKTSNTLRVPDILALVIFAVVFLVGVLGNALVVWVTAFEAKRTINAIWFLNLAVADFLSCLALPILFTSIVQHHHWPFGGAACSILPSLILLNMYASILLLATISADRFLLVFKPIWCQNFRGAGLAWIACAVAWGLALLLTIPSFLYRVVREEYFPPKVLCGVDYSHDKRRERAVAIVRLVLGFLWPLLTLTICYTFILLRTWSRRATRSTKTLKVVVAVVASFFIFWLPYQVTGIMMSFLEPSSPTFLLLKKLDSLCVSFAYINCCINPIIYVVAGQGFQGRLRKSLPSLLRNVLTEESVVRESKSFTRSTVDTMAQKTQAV

T3: human C5aR (CD88) (human, UniProt P21730 1-350)
T3 sequence (looked up): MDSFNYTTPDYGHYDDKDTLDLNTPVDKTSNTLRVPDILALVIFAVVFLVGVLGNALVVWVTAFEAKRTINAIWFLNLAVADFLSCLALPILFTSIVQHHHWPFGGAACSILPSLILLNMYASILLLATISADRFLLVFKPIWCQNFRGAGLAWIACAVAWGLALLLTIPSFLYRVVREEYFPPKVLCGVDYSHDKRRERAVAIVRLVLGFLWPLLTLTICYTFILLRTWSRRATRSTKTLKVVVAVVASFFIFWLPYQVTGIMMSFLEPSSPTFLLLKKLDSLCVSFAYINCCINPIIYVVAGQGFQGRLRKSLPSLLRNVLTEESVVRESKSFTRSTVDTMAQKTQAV


Key:
C5aR [1] = biological target: T1, C5aR; settings: PMN membranes, cited from earlier work
C5aR [2] = biological target: T1, C5aR; experiment: Prior-art antagonistic activity (WO 03/033528); settings: WO 03/033528 values
Excerpt: In WO 03/033528 single substitutions of various amino acids in the molecule Ac-Phe[Orn-Pro-cha-Trp-Arg](compound 1) [SEQ ID NO: 6] are reported. A decrease of the affinity to the C5aR and a decrease in antagonistic potency is described for the substitution of the Arg with homoarginine (compound 44), citrulline (compound 45), lysine ([…]), or canavanine (compound 47). […] No IC50 value is reported for canavanine. […] Apart from the effects of charged arginine substitutions (homoarginine and lysine), in particular the strong decrease in binding strength upon exchange of the charged arginine (0.45 μM) by the uncharged citrulline (6 μM) is remarkable. The antagonistic activity is reduced even more (Arg: 0.028 μM, Cit: 0.690 μM). […] This also reflects that the size of the side chain itself is not sufficient as a criterium for predicting the activity. WO 03/033528 sets forth that the arginine (1) substitution to citrulline (45) results in a compound with allegedly remarkable antagonistic properties (p. 44, line 28ff). However, the cut off rate for what is remarkable, is chosen arbitrarily and the significant 24-fold drop in activity underlines the in the prior art well known importance of the C-terminal arginine in the peptidic C5aR antagonists. […]

human PMNs = settings: myeloperoxidase release, read-out: IC50 antagonistic activity (WO 99/00406); cited from earlier work
C5a receptor = biological target: T2, C5a receptor; settings: read-out: IC50 as a measure for affinity (WO 03/033528); cited from earlier work
human C5aR (CD88) [3] = biological target: T3, human C5aR (CD88); experiment: cell-based or functional assay
human C5aR (CD88) [4] = biological target: T3, human C5aR (CD88); experiment: cell-based or functional assay; remark: listed apart in the source
human C5aR (CD88) [5] = biological target: T3, human C5aR (CD88); experiment: cell-based or functional assay; remark: listed apart in the source
human C5aR (CD88) [6] = biological target: T3, human C5aR (CD88); experiment: cell-based or functional assay; remark: listed apart in the source
[7] = read-out: IC50 binding to C5aR (WO 92/12168)
[8] = read-out: IC50 for the binding (WO 90/09162)

Row | EC50, agonistic activity, enzyme release assay (human C5aR (CD88) [3]) [nM] | IC50 activity group, enzyme release assay (human C5aR (CD88) [5]) [nM] | Molecule | other results
1 | – | – | (N-Methyl)Phe-Lys-Pro-cha-Phe-Phenylbutanoyl ([NMeF]KP[dCha]F-Phenylbutanoyl) | IC50 (C5aR [1]; [7]): 2600 nM
2 | – | – | CC(=O)N[C@@H](Cc1ccccc1)C(=O)N[C@@H](CCCCN)C(=O)N[C@@H](C)C(=O)N[C@@H](CC1CCCCC1)C(=O)N[C@@H](C)C(=O)N[C@@H](CC(C)C)C(=O)N[C@H](C)C(=O)N[C@@H](Cc1ccc(O)cc1)C(=O)O [Ac-Phe-Lys-Ala-Cha-Ala-Leu-ala-Tyr-OH] (Ac-FKA[Cha]AL[dA]Y-OH) | IC50 (C5aR [1]; [8]): 170 nM
3 | – | – | (N-Methyl)Phe-Lys-Pro-cha-ψ{CH2- N(CH2CH2C6H5)}-Arg-OH | IC50 (C5aR [1]; [7]): 360 nM
4 | – | – | CC(=O)N[C@@H](Cc1ccccc1)C(=O)N[C@H]1CCCNC(=O)[C@H](CCCNC(N)=O)NC(=O)[C@H](Cc2c[nH]c3ccccc23)NC(=O)[C@@H](CC2CCCCC2)NC(=O)[C@@H]2CCCN2C1=O [Compound 10, Ac-Phe-[Orn-Pro-cha-Trp-Cit]] | drop in activity on substitution of arginine by citrulline (C5aR [2]): 24 fold
5 | – | – | Me-Phe-Lys-Pro-cha-Trp-arg (FKPXWX; N-methyl, D-cha, D-Arg; oligopeptide with antagonistic activity at the C5a receptor) | IC50 (human PMNs): 85 nM
6 | – | – | Ac-Phe-Lys-Ala-Cha-Ala-Leu-N-Methyl(D)ala-Arg-OH (Ac-FKA[Cha]AL[dNMeA]R-OH; SMILES CC(=O)N[C@@H](Cc1ccccc1)C(=O)N[C@@H](CCCCN)C(=O)N[C@@H](C)C(=O)N[C@@H](CC1CCCCC1)C(=O)N[C@@H](C)C(=O)N[C@@H](CC(C)C)C(=O)N(C)[C@H](C)C(=O)N[C@@H](CCCNC(=N)N)C(=O)O) | IC50 (C5aR [1]; [8]): 12 nM
7 | – | – | Ac-Phe[Orn-Pro-cha-Trp-Arg] with the Arg substituted with lysine (WO 03/033528); number 47 also printed for canavanine [WO 03/033528 compound 47] | IC50 (C5a receptor): 24000 nM
8 | – | – | (N-Ethyl)Phe-Lys-Ala-Cha-Ala-Leu-N-Methyl(D)ala-Arg-OH ([NEtPhe]KA[Cha]AL[dNMeA]R-OH; N-terminus assumed; SMILES CCN[C@@H](Cc1ccccc1)C(=O)N[C@@H](CCCCN)C(=O)N[C@@H](C)C(=O)N[C@@H](CC1CCCCC1)C(=O)N[C@@H](C)C(=O)N[C@@H](CC(C)C)C(=O)N(C)[C@H](C)C(=O)N[C@@H](CCCNC(=N)N)C(=O)O) | IC50 (C5aR [1]; [8]): 11 nM
9 | – | – | Ac-Phe[Orn-Pro-cha-Trp-Arg] with the Arg substituted with homoarginine (WO 03/033528) [WO 03/033528 compound 44] | IC50 (C5a receptor): 1360 nM
10 | > 1430 | – | {Ph‑CH2‑CH2‑CO}-[Orn]P[dCha]W[Nle] (lactam 1-C) [Ph-CH2-CH2-CO-[Orn-Pro-cha-Trp-Nle]] | –
11 | – | > 2000 | Ac-A[Orn]P[dCha]WR (lactam 2-C; SMILES CC(=O)N[C@@H](C)C(=O)N[C@H]1CCCNC(=O)[C@H](CCCNC(=N)N)NC(=O)[C@H](Cc2c[nH]c3ccccc23)NC(=O)[C@@H](CC2CCCCC2)NC(=O)[C@@H]2CCCN2C1=O) [Ac-Ala-[Orn-Pro-cha-Trp-Arg]] | IC50, functional assay (human C5aR (CD88) [4]): > 30000 nM
12 | > 1430 | ≤ 50 | Ac-F[Orn]P[dCha]W[Nle] (lactam (positions not given here); not fully specified (bridges); printed as Ac-Phe-[Orn-Pro-cha-Trp-Nle]) [Ac-Phe-[Orn-Pro-cha-Trp-Nle]] | –
13 | – | > 2000 | Ac-F[Orn]P[dCha]WA (lactam (positions not given here); not fully specified (bridges); printed as Ac-Phe-[Orn-Pro-cha-Trp-Ala]) [Ac-Phe-[Orn-Pro-cha-Trp-Ala]] | IC50, functional assay (human C5aR (CD88) [4]): 5600 nM
14 | – | > 2000 | Ac-F[Orn]P[dA]WR (lactam (positions not given here); not fully specified (bridges); printed as Ac-Phe-[Orn-Pro-ala-Trp-Arg]) [Ac-Phe-[Orn-Pro-ala-Trp-Arg]] | IC50, functional assay (human C5aR (CD88) [4]): > 30000 nM
15 | – | ≤ 2000 | FXPXWX (not fully specified; Ac-; Orn2; cha4 (D); Cit6; cyclic [2-6]) [Ac-Phe-[Orn-Pro-cha-Trp-Cit]] | IC50 activity group, enzyme release assay (Example 30) (human C5aR (CD88) [6]): ≤ 2000 nM
16 | > 1430 | – | H-F[Orn]P[dCha]W[Nle] (lactam 2-C; not fully specified; printed as H-Phe-[Orn-Pro-cha-Trp-Nle]) [H-Phe-[Orn-Pro-cha-Trp-Nle]] | –
17 | – | > 2000 | Ac-F[Orn]P[dCha]AR (lactam (positions not given here); not fully specified (bridges); printed as Ac-Phe-[Orn-Pro-cha-Ala-Arg]) [Ac-Phe-[Orn-Pro-cha-Ala-Arg]] | IC50, functional assay (human C5aR (CD88) [4]): > 30000 nM
18 | > 1430 | ≤ 50 | Ac-F[Orn]P[dCha]WF (lactam (positions not given here); not fully specified (bridges); printed as Ac-Phe-[Orn-Pro-cha-Trp-Phe]) [Ac-Phe-[Orn-Pro-cha-Trp-Phe]] | IC50, enzyme release assay (human C5aR (CD88) [4]): 23 nM
19 | > 1430 | ≤ 200 | {HOCH2(CHOH)4‑C═N‑O‑CH2‑CO}-F[Orn]P[dCha]W[Nle] (lactam 2-C) [HOCH2(CHOH)4-C═N-O-CH2-CO-Phe-[Orn-Pro-cha-Trp-Nle]] | –
20 | > 1430 | ≤ 10 | Ac-F[Orn]P[dCha]W[AllylGly] (lactam (positions not given here); not fully specified (bridges); printed as Ac-Phe-[Orn-Pro-cha-Trp-Eaf]) [Ac-Phe-[Orn-Pro-cha-Trp-Eaf]] | –
21 | > 1430 | ≤ 50 | Ac-KF[Orn]P[dCha]W[Nle] (lactam 3-C; SMILES CCCC[C@@H]1NC(=O)[C@H](Cc2c[nH]c3ccccc23)NC(=O)[C@@H](CC2CCCCC2)NC(=O)[C@@H]2CCCN2C(=O)[C@@H](NC(=O)[C@H](Cc2ccccc2)NC(=O)[C@H](CCCCN)NC(C)=O)CCCNC1=O) [Ac-Lys-Phe-[Orn-Pro-cha-Trp-Nle]] | –
